From the supplement of paper PMC10126150 come the findings set out here.

± gives the standard deviation of the averaged measurements.
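Note: ATP exposure 15 min at 22 °C before imaging.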

The series relates to ATP. Nature of the series: switch fluorescence ratio, 500 uM ATP over buffer (Cy3 cluster intensity, sum of 5 cycles each) (fold (ratio)); higher = stronger signal-on switching upon ATP binding; sequences stand for … in TCGTCGGCAGCGTCAGATGTGTATAAGAGACAGTTTTTTTTTTTTTTTTTTTTTTTTT…TC. The conditions noted are these: aptamer strand: ATP DNA aptamer (quencher-CACCTGGGGGAGTATTGCGGAGGAAGG + anchor), 100 nM annealed; ATP concentration: 500 uM. The procedure, abridged: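 Clusters with intensities outside 100-1000 RFU were excluded. The remaining Cy3-labelled switching-strand clusters on a modified Illumina MiSeq flow-cell had been annealed to 100 nM quencher-labelled ATP aptamer and imaged in selection buffer, then after 15 min with 500 uM ATP at 22 °C, for five cycles separated by NaOH stripping and re-annealing. The fluorescence ratio, averaged per switch-domain sequence, is each cluster's summed target-cycle Cy3 intensity over its summed buffer-cycle Cy3 intensity.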
For GAGTATGTTC, the switch fluorescence ratio came out at 0.95 ± 0.017.

As to CTTTGGATCA, the switch fluorescence ratio amounted to 0.9836 ± 0.0055. As for TGTTTTATTT, the switch fluorescence ratio turned out to be 0.984 ± 0.018. Take CGTCTCGAAC: the switch fluorescence ratio was 1 ± 0.014. With AGATGGAGCT, the switch fluorescence ratio worked out at 0.9875 ± 0.0055. For GGCGCCATGG, the switch fluorescence ratio came out at 0.986 ± 0.055. Next, GTTATTGCTT: 0.98 ± 0.068; GGCCCTGGGA: 1.02 ± 0.029. Next, ACGGTGGTCA: 1.023 ± 0.0092; TAATACCGTA: 1.06 ± 0.084; GAATATATAG: 0.965 ± 0.011. For the sequence CATGCACACT, the switch fluorescence ratio came out at 1.11 ± 0.053. Regarding TCTAGATGGT, the switch fluorescence ratio came out at 0.992 ± 0.025. To TTATGTGAGG belongs 0.977 ± 0.034; to CAGGCTTGG, 0.994 ± 0.011. To CCGAAGACAG belongs 3.11 ± 0.21; to CGTTATTGCT, 1.016 ± 0.0039.

Take GCCGGGGCGG: the switch fluorescence ratio came out at 1.006 ± 0.0041.

As to CAGGGGAAGC, the switch fluorescence ratio is 0.999 ± 0.011.

On to TGGAGATTTT, for which the switch fluorescence ratio was 1.015 ± 0.0062. As to GCCGTTAACG, the switch fluorescence ratio stood at 0.969 ± 0.028. In the case of GGCTAAAATT, the switch fluorescence ratio stood at 0.999 ± 0.042. To TTTTGAAGCC belongs 1.03 ± 0.014; to TTGTTTTTCA, 0.999 ± 0.027; to CATTTTACTT, 1.02 ± 0.035. Regarding TCTACGAGAG, the switch fluorescence ratio turned out to be 1.04 ± 0.048. To TACGTATGGG belongs 0.997 ± 0.021; to CGGAAATAAA, 0.968 ± 0.025; to TTAGAGAGGA, 0.987 ± 0.026.

Turning to AAAGGGGTCT, the switch fluorescence ratio came to 1.01 ± 0.031. Regarding CGAATAGCTT, the switch fluorescence ratio was found to be 1.01 ± 0.062. Next, GTTGAACCGG: 0.988 ± 0.02; CCCATGCAAG: 1.3 ± 0.32. In the case of CGCAATTAGG, the switch fluorescence ratio turned out to be 3.97 ± 0.46. GAGGCCTTAC: the switch fluorescence ratio came to 1.69 ± 0.043. Next, ATTTATCCAC: 1.01 ± 0.046. Next, ATTTTGCAGG: 0.997 ± 0.046; TTTTTACGTT: 1.03 ± 0.021; CGTGTGGGAC: 1.0136 ± 0.00016. For the sequence GACGGTTTAG, the switch fluorescence ratio was 1.04 ± 0.058.

With TAGAAAGATT, the switch fluorescence ratio came to 1.02 ± 0.016.

Turning to TCATGAACAG, the switch fluorescence ratio worked out at 0.993 ± 0.014.

For GCCTAACGCG, the switch fluorescence ratio came out at 1.03 ± 0.018.

With AAGTTAAGGT, the switch fluorescence ratio was determined as 1.005 ± 0.002. To CTGGAACGTC belongs 0.989 ± 0.026. Next, AGAGGCCTGT: 1.01 ± 0.0086; GGTTTCAAAA: 0.99668 ± 0.00038. For TTTTGGGGGC, the switch fluorescence ratio turned out to be 1.01 ± 0.023. Next, CAGGGGGTTG: 0.9866 ± 0.0018; GAGTAAACTT: 1.056 ± 0.0082; AGAGGTAAGC: 1.02 ± 0.019. To ATTTATACTG belongs 1.05 ± 0.052; to TTTAACACCA, 1.029 ± 0.0075. To TATTGTTAGG belongs 1.01 ± 0.027; to AGGAGTGTTC, 1.01 ± 0.084; to GCCAAATTAG, 0.956 ± 0.011. In the case of AGAGTCGTTT, the switch fluorescence ratio was 0.9853 ± 0.0046.

With GGGTTATAGT, the switch fluorescence ratio came out at 1.01 ± 0.017. For the sequence GGGCTATTTT, the switch fluorescence ratio was 0.991 ± 0.031. To GTTAGCGAAG belongs 1 ± 0.019; to TCAAAATTAT, 1.02 ± 0.043.

Take CGGAGTAAGA: the switch fluorescence ratio was 2.53 ± 0.15. Next, GAGATTGGGG: 0.99 ± 0.022. Next, GGGCAAATTG: 0.968 ± 0.028.

Turning to TTTTGAGTGG, the switch fluorescence ratio was 0.995 ± 0.025. To AAGAAGTTGG belongs 0.985 ± 0.038. For the sequence TTCACGGGGG, the switch fluorescence ratio was determined as 1.018 ± 0.0078. For CTGTGGGGCG, the switch fluorescence ratio came out at 1.01 ± 0.045. To TAGAGATTAG belongs 1 ± 0.038. For the sequence AGGTGGCGTC, the switch fluorescence ratio came out at 1.03 ± 0.027. Turning to TGCACCCGTA, the switch fluorescence ratio was 1.054 ± 0.0013. For the sequence GACTTTGTAC, the switch fluorescence ratio stood at 1.06 ± 0.014. Consider TTCGGGCTAG, for which the switch fluorescence ratio stood at 1.013 ± 0.0052. Regarding TTTTTGATCT, the switch fluorescence ratio came out at 0.998 ± 0.016. In the case of AATGCTCGGA, the switch fluorescence ratio stood at 0.981 ± 0.02.

For ATATTTATCG, the switch fluorescence ratio was 1.01 ± 0.033. To TTTGAAGGGG belongs 1.01 ± 0.035; to CAATGGGGCT, 1.02 ± 0.038.

Consider ATATTTGCGA, for which the switch fluorescence ratio was found to be 0.973 ± 0.022. Next, CGGTGTGGGT: 1.03 ± 0.0023; TCCTTTTTGT: 1.41 ± 0.54; TTTTTCCCTT: 1.01 ± 0.034.

With AACCATTGCT, the switch fluorescence ratio stood at 1.048 ± 0.0053. As for GCTCGAGGGT, the switch fluorescence ratio was determined as 1 ± 0.03. Next, CTTATTAATC: 1.01 ± 0.028. Take TGGTTACCCC: the switch fluorescence ratio is 1.001 ± 0.01. Next, AACTCAGGCG: 1.039 ± 0.0066. Next, GGGGTCTTCC: 1.07 ± 0.041; GACATGGCTT: 0.975 ± 0.011. TCGAGTTTGT: the switch fluorescence ratio is 1.01 ± 0.022. With CTGGTTCTTC, the switch fluorescence ratio came out at 0.95 ± 0.022. For AAATATTGTT, the switch fluorescence ratio is 0.976 ± 0.027.

As for TTAAAAGGGG, the switch fluorescence ratio worked out at 1.01 ± 0.044. On to CTGGGGACGT, for which the switch fluorescence ratio worked out at 0.9821 ± 0.0081. Regarding TTGGTTTTT, the switch fluorescence ratio was determined as 0.993 ± 0.019.

Consider GTTGTATTGT, for which the switch fluorescence ratio was found to be 0.999 ± 0.019. To CGGATGGGGT belongs 0.973 ± 0.038; to GTCGTCCTGT, 0.9884 ± 0.0083. Regarding TTGCCGTTCA, the switch fluorescence ratio worked out at 1.02 ± 0.013.

Take AAGGTGGAAG: the switch fluorescence ratio came to 1.003 ± 0.0046. To TGAAGGGGAT belongs 1.02 ± 0.045; to CGTTCGCGCG, 1.02 ± 0.023; to TGATTAAAGG, 1.02 ± 0.025. To TCGTTTTTTT belongs 1.07 ± 0.13; to TGTTTTCTGT, 0.976 ± 0.04. For the sequence TTAGGGGCGC, the switch fluorescence ratio was found to be 0.985 ± 0.014. As for ACTTAATAAC, the switch fluorescence ratio amounted to 1.03 ± 0.013. Next, GTGCTAGCTC: 1.004 ± 0.0034; GACGTTAGCT: 1.03 ± 0.012; AAAGCGTGTT: 1.02 ± 0.05. Consider ATTTTGGGGG, for which the switch fluorescence ratio amounted to 0.988 ± 0.021. For the sequence CGATATAGGC, the switch fluorescence ratio came to 0.959 ± 0.018.

Take CGTCAGGCTT: the switch fluorescence ratio came to 0.987 ± 0.052. For the sequence CTATAGAAGG, the switch fluorescence ratio worked out at 1.02 ± 0.025.

On to CTGCACATGG, for which the switch fluorescence ratio turned out to be 1.7 ± 0.21.

For the sequence ACTGAAGGGG, the switch fluorescence ratio turned out to be 1.02 ± 0.059. On to GCACCATTCC, for which the switch fluorescence ratio came to 1.72 ± 0.07. Next, AAAGAGACAG: 0.993 ± 0.0046; AGGGGCGGAG: 0.9743 ± 0.0035; CGGATGAGTA: 0.988 ± 0.029.
